Publication PMC3946203, “Specificity of ε and Non-ε Isoforms of Arabidopsis 14-3-3 Proteins Towards the H^+-ATPase and Other Targets” (PLoS ONE, 2014)
Where no end group is shown, it is not given here. [ ]: non-standard residue; d: D form. The star is where a group is joined. Biotin = O=C1N[C@H]2[C@H](CS[C@H]2CCCCC(=O)*)N1; pT = C[C@@H](OP(=O)(O)O)[C@H](N)C(=O)O

T1: GF14ωG213N (Arabidopsis, UniProt Q01525 1-259, G213N, 32P-phosphate on the phosphorylation site at the junction between GST and the cloned protein (bead binding assay))
T1 construct: GF14 omega, Arabidopsis, At1g78300, Gly213 changed into Asn; also called GF14ω loop 8 mutant; source: E. coli BL21(DE3), GST fusion (pGEX-2TK)
T1 sequence (looked up): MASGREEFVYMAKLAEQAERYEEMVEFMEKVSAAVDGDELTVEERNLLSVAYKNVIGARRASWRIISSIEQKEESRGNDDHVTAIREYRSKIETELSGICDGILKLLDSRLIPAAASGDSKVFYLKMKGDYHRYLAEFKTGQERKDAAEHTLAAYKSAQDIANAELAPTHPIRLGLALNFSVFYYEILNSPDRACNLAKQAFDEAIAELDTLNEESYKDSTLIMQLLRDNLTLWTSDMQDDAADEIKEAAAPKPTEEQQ

T2: GF14χ (Arabidopsis, UniProt P42643 1-267, 32P-phosphate on the phosphorylation site at the junction between GST and the cloned protein (overlay and bead binding assays))
T2 construct: 14-3-3 protein GF14 chi, Arabidopsis, At4g09000; cDNA by RT-PCR with primers corresponding to the coding region; also called GF14 chi; GST-GF14χ
T2 sequence (looked up): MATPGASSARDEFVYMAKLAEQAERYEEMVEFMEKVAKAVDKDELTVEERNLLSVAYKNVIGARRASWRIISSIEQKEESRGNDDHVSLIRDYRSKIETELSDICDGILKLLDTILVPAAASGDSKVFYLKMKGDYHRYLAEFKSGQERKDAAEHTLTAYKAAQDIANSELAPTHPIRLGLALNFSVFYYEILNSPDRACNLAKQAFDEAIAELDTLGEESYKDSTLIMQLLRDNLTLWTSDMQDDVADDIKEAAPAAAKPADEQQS

T3: GF14κ (Arabidopsis, UniProt P48348 1-248, 32P-phosphate on the phosphorylation site at the junction between GST and the cloned protein (overlay and bead binding assays))
T3 construct: 14-3-3 protein GF14 kappa, Arabidopsis, At5g65430; cDNA by RT-PCR with primers corresponding to the coding region; also called GF14 kappa; GST-GF14κ
T3 sequence (looked up): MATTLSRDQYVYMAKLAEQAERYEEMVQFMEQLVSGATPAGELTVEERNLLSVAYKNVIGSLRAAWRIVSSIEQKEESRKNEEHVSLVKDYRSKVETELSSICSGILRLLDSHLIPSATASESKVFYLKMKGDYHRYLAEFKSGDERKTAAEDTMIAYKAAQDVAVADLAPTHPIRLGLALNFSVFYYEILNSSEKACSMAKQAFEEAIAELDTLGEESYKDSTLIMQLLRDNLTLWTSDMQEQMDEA

T4: GF14λ (Arabidopsis, UniProt P48349 1-248, 32P-phosphate on the phosphorylation site at the junction between GST and the cloned protein (overlay and bead binding assays))
T4 construct: 14-3-3 protein GF14 lambda, Arabidopsis, At5g10450; cDNA by RT-PCR with primers corresponding to the coding region; also called GF14 lambda; GST-GF14λ
T4 sequence (looked up): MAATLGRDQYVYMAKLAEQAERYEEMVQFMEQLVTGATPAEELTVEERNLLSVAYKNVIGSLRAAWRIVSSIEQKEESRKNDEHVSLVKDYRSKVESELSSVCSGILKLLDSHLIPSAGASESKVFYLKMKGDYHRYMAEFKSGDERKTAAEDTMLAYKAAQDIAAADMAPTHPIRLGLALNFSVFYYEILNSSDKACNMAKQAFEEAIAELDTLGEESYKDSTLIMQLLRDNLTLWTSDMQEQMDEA

B1: bL15Vp peptide (peptide)
peptide: Biotin-LKGLDIDTIQQNY[pT]V
notes: last 15 amino acids of the maize plasma membrane H+-ATPase isoform 2 (MHA2); also called phosphorylated biotinyl-peptide reproducing the last 15 residues of the MHA2 H+-ATPase; source: synthetic peptide (Neosystem, Strasbourg)
B2: GF14εN211G (natural protein, Arabidopsis, UniProt P48347 1-254, looked up)
chain: MENEREKQVYLAKLSEQTERYDEMVEAMKKVAQLDVELTVEERNLVSVGYKNVIGARRASWRILSSIEQKEESKGNDENVKRLKNYRKRVEDELAKVCNDILSVIDKHLIPSSNAVESTVFFYKMKGDYYRYLAEFSSGAERKEAADQSLEAYKAAVAAAENGLAPTHPVRLGLALNFSVFYYEILNSPESACQLAKQAFDDAIAELDSLGEESYKDSTLIMQLLRDNLTLWTSDLNEEGDERTKGADEPQDEN
modifications: 32P-phosphate on the phosphorylation site at the junction between GST and the cloned protein (bead binding assay)
notes: GF14 epsilon, Arabidopsis, At1g22300, Asn211 changed into Gly; also called GF14ε loop 8 mutant; source: E. coli BL21(DE3), GST fusion (pGEX-2TK)

Assays:
Conditions in all cases: both partners purified
GF14εN211G = molecular target: B2; assay: pull-down; bL15Vp on streptavidin-agarose magnetic beads; 0.1 nmol 32P-labeled GF14 wild type or loop 8 mutant in buffer HT without Mg2+; FC not told for this experiment
GF14ωG213N = molecular target: T1, GF14ωG213N; assay: pull-down; bL15Vp on streptavidin-agarose magnetic beads; 0.1 nmol 32P-labeled GF14 wild type or loop 8 mutant in buffer HT with 5 mM Mg2+; FC not told for this experiment
GF14χ = molecular target: T2, GF14χ; assay: pull-down; 0.05 nmol bL15Vp on streptavidin-agarose magnetic beads; 0.1 nmol 32P-labeled GF14 in 50 µl buffer HT, 60 min, room temperature; without FC; bound radioactivity counted
GF14κ = molecular target: T3, GF14κ; assay: as above
GF14λ = molecular target: T4, GF14λ; assay: as above
bL15Vp peptide = molecular target: B1; assay: pull-down; bL15Vp on streptavidin-agarose magnetic beads; 0.1 nmol 32P-labeled GF14 wild type or loop 8 mutant in buffer HT with 5 mM Mg2+; FC not told for this experiment

binding result (GF14εN211G) | binding result (GF14ωG213N) | binding result (GF14χ) | binding result (GF14κ) | binding result (GF14λ) | fold more protein bound with 5 mM Mg2+ (reference not clear: wild type GF14ε or the mutant without Mg2+) (bL15Vp peptide) [fold] | Binder
binds | binds | binds | binds | binds | – | B1
– | – | – | – | – | > 5 | B2
